Test results published in patent US20240325557A1, “TREATMENT OF CANCER” (INNATE PHARMA, priority 2020, published 2024).
Changes are numbered by the printed parent chain. Read-outs that look alike come from different tables or passages of the source.

Legend:
[1] = system: SUM190 cells; experiment: In vivo efficacy of ADCs, SUM190 mouse model of human breast cancer (Example 9); conditions: single i.v. injection 3 mg/kg; antibodies conjugated to ggfg-Dxd, DAR=8
Experimental: When tumors reached a volume between 195 and 250 mm3, mice were randomized into groups of 9 mice for intravenous treatment with a single injection of 3 mg/kg of camptothecin ADCs. Tumor growth were followed twice a week. Kaplan Meier survival curves were established by using GraphPad Prism V7 software according to the following criteria: When the tumor volume reached 1500 mm3, mice were euthanized and considered dead on the day of sacrifice (D).

[2] = biological target: T1, Nectin-4 on SUM185 cells (Homo sapiens, UniProt Q96NY8); experiment: Flow cytometry titration on SUM185 cells; assay type: binding; conditions: cells detached with trypsin
T1 construct: host or cells: SUM185
T1 sequence (Q96NY8 32-510): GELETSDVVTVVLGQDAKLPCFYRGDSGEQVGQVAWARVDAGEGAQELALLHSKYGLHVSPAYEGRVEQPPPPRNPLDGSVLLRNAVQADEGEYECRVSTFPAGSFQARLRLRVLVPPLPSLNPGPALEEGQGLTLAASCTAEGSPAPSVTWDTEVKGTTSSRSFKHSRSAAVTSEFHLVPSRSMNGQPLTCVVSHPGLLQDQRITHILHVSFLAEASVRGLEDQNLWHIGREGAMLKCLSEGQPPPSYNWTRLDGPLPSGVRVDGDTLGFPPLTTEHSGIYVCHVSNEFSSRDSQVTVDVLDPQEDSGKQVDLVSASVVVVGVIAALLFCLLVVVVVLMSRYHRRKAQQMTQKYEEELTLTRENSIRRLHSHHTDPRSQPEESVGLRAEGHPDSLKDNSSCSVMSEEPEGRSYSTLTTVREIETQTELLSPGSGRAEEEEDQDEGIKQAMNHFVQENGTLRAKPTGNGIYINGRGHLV
Experimental: In this experiment, the ability of anti-Nectin-4 Abs to bind to Nectin-4 on SUM185 cells (expressing relatively high levels of Nectin-4) was assessed by flow cytometry. […] Briefly, SUM185 cells were detached from the flask with trypsin (37° C. for 5 min) and then washed once with media. 50 000 cells were incubated with a concentration range of test antibodies starting from 20 μg/ml (8 points, dilution factor 4) for 30 minutes at 4° C. […] Cells were washed twice with ice-cold SB. Acquisition was done on a flow cytometer.

[3] = system: SUM185 cells; experiment: Fab-ZAP internalization assay (CTG cell viability); assay type: cell-based, human
Experimental: The ability of the anti-Nectin-4 antibodies to induce nectin-4 internalization was assessed on SUM190 cell lines expressing lower levels of nectin-4 and in SUM185 cells expressing higher levels of Nectin-4. The internalization was indirectly determined by using the Fab-ZAP human Internalization Kit (Advanced Targeting Systems) to allow the anti-Nectin-4 antibodies to target and eliminate Nectin-4 expressing cells, with measurement of cell viability using the CTG substrate (CellTiter-Glo® Luminescent Cell Viability Assay (Promega). Fab-ZAP is a chemical conjugate of goat anti-human monovalent antibody and the ribosome-inactivating protein, saporin. The antibodies used are affinity-purified polyclonal antibodies against both the heavy and light chain of human IgG. This secondary conjugate is used to evaluate the potential of a primary antibody to internalize.
Briefly, a concentration range of the anti-Nectin-4 antibodies or the controls were incubated with SUM190 or SUM185 cells. After 45-minute incubation at 4° C., the non-bound antibodies were washed away and Fab-ZAP was added on top of the cells. The newly formed complexes (anti-nectin-4 antibody+Fab-ZAP) internalized into the cells where the Saporin was released and stopped the protein synthesis leading to cell death. The internalization capability of the antibody was indirectly determined by the cell's viability: the more efficient was the cell killing; the better was the internalization capability of the antibody.

[4] = system: SUM190 cells; experiment: In vitro ADC cytotoxicity, 5 days, CTG; assay type: cell-based, human; conditions: antibodies conjugated to ggfg-Dxd or PEG (8U)-Val-Ala-PAB-Exatecan, DAR=8
Experimental: We assessed the ability of the 5E7 antibody (mAb6) conjugated with camptothecin analogues (Dxd or Exatecan) to kill SUM190 cells. […] A first ADC was prepared in which antibodies were conjugated at 8 toxins per antibody (DAR=8) to a camptothecin analogue (Dxd) via a linker comprising an intracellularly cleavable tetrapeptide linker (GGFG) having the structure shown below, referred to as ggfg-Dxd:
A second ADC was prepared in which antibodies were conjugated at 8 toxins per antibody (DAR=8) to another camptothecin analogue (exatecan) via the cleavable linker having the structure below, referred to as PEG (8U)-Val-Ala-PAB-Exatecan:
Luminescence vs. Ab concentration was plotted on graph.
For each ADC, a concentration range of ADC was incubated with nectin-4-expressing cells. After incubation, CTG substrate was added at 1/1 ratio and the luminescent signal was read with a plate reader (Enspire). It allowed quantifying the ATP present (indicator of metabolically active cells) which was proportional to cell viability.

[5] = system: rat Nectin-4; experiment: Flow cytometry species cross-reactivity on CHO cells; assay type: binding
Experimental: Anti-Nectin-4 antibodies were tested by flow cytometry for binding to different CHO cell lines made to express respectively the mouse, cynomolgus and rat Nectin-4 protein (including an N-terminal V5 tag not shown in the sequences below).

rat Nectin-4, sequence (as listed by the source): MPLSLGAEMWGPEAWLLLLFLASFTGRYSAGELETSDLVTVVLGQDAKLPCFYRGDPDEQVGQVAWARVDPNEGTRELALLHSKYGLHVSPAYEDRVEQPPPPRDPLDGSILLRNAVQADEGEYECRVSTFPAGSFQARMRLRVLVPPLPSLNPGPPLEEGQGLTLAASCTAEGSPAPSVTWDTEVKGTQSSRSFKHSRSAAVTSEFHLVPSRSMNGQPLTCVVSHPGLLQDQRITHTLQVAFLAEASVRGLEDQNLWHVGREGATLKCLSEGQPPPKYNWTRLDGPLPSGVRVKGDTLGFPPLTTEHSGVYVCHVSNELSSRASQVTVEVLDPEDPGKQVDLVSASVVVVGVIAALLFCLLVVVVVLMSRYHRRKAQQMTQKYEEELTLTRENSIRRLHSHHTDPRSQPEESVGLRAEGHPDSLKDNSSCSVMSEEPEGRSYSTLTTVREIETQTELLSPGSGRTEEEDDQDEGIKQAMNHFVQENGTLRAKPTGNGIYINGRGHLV

B1: N41 (antibody, V domains shown)
VH: QVQLKQSGPGLVQPSQSLSITCTVSGFSLTNYGVHWVRQSPGKGLEWLGVIWSGGSTDYNAAFISRLSISKDTSKSQVFFKMNSLQADDTAIYYCARELIHAMDNWGQGTSVTVSS
VL: DIQMTQSPASLSVSVGETVTITCRASENIYSNLAWYQQKQGNSPQLLVFAATNLADGVPSRFSGSGSGTQYSLKINSLQSEDFGTYYCQHFWGTPTFGGGTKLEIK
For B1, the “control of tumor growth” value [1] was “no longer showed the ability to control tumor growth”.

B2: 5E7 (antibody, V domains shown)
VH: QVQLQQPGAELVKPGASVKLSCKASGYIFTSYWMHWVKQRPGQGLEWIGEIDPSDSYTNYNQKFKGKATLTLDKSSSTTYMQLSSLTSEDSAVYYCVRGYGNYGDYWGQGTTLTVSS
VL: DVVMTQAAFSNPVTLGTSASISCRSSKSLLHSNGITYLYWYLQKPGQSPQLLIYQMSNLASGVPDRFSSSGSGTDFTLRISRVEAEDVGVYYCAQNLELPWTFGGGTKLEIK
For B2, the “binding profile on SUM185 cells” value [2] was “lower plateau for binding to the SUM185 cells”, the induction of internalization [3] was “more efficient than enfortumab in inducing internalization” and the “killing of SUM190 cells (cell viability)” value [4] was “more potent that mAb3 conjugated to camptothecin analogue”. The “control of tumor growth” value [1] was “strong ability to prevent tumor growth”, the “binding to rat Nectin-4 expressing CHO cells” value [5] was “showed binding to rat Nectin 4 expressing cells” and the “binding to rat Nectin-4 expressing CHO cells” value ([5]; listed as mAb6) was “bind to rat Nectin-4”.

B3: 10B12: anti-Nectin-4 antibody, VH SEQ ID NO: 24, VL SEQ ID NO: 25, binds junction of domain C1 and V (antibody, listed as Mus musculus, V domains shown)
VH: B2 VH with I28T, L72V, T79A
VL: B2 VL with V2I
B3 was tested, and the “binding profile on SUM185 cells” value [2] was “lower plateau for binding to the SUM185 cells”, the “binding to rat Nectin-4 expressing CHO cells” value [5] was “showed binding to rat Nectin 4 expressing cells” and the “binding to rat Nectin-4 expressing CHO cells” value ([5]; listed as mAb7) was “bind to rat Nectin-4”.
